{
  "source": "paper PMC3109874",
  "target": "dicamba monooxygenase (DMO) (Stenotrophomonas (formerly Pseudomonas) maltophilia, strain DI-6) (UniProt Q5S3I3)",
  "assay": "crystal structure",
  "data": [
    {"substance": "dicamba monooxygenase (DMO) (from UniProt Q5S3I3 2-339) (enzyme)", "values": [
      {"measurement": "stoichiometry N", "result": 3}
    ]}
  ]
}
